Results on 83 variants are retold here after the RNAGym collection of RNA variant scans (doi:10.1093/molbev/msab373).

B1: Azoarcus group I ribozyme (parent)
chain: GUGCCUUGCGCCGGGAAACCACGCAAGGGAUGGUGUCAAAUUCGGCGAAACCUAAGCGCCCGCCCGGGCGUAUGGCAACGCCGAGCCAAGCUUCGGCGCCUGCGCCGAUGAAGGUGUAGAGACUAGACGGCACCCACCUAAGGCAAACGCUAUGGUGAAGGCAUAGUCCAGGGAGUGGCGAAAGUCACACAAACCGG

The variants in this data set derive from B1. The data set is described as follows: reverse-splicing fitness (ratio to wild type); higher = more active; in vitro selection; Mg2+ level not given. In a few lines: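 An in vitro group I ribozyme library with randomized positions was T7-transcribed and gel-purified. In triplicate, 10 pmol RNA in EPPS pH 7.5 was reacted with 50 pmoles of a 30-nt RNA substrate for 1 h at 37 °C across several added MgCl2 levels (1–48 mM), then stopped with EDTA. Products were reverse transcribed from a substrate-complementary primer, PCR-amplified and sequenced (HiSeq 4000). Fitness is a variant's read proportion after selection over that before, normalised to wild type.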
As for C82U A111U A145G U176G, the reverse-splicing fitness was found to be 0.0229. Turning to C82U A111U A145G U176A, the reverse-splicing fitness was determined as 0.107. In the case of C82U A111U A145G U176C, the reverse-splicing fitness amounted to 0.159. To C82U A120C A145G C150U C169A U176G belongs 0.00464; to C82U A120C A145G C150U C169A U176C, 0.0131. On to C82U A120C A145G C150U C169A U176A, for which the reverse-splicing fitness was 0.0152. To C82U A111U A145U C150G U176A belongs 0.0103. To C82U A111U A145U C150G U176G belongs 0.00449; to C82U A111U A145U C150G U176C, 0.019; to C82U A111U A145U C150U C169A U176C, 0.00869. Regarding C82U A111U A145U C150U C169A U176G, the reverse-splicing fitness is 0.00627. To C82U A111U A145U C150U C169A U176A belongs 0.0113. To C82U A120C A145C C150G C169U U176C belongs 0.00991; to C82U A120C A145C C150G C169U U176A, 0.00992.

C82U A120C A145C C150G C169U U176G: the reverse-splicing fitness was 0.00403. To C82U A111U A145U C150G belongs 0.028; to C82U A111U A145U C150U, 0.183; to C82U A111U A145U C150A, 0.0273. To C82U A111U C150U C169U U176A belongs 0.0149. For the variant C82U A111U C150U C169U U176C, the reverse-splicing fitness was found to be 0.0152. To C82U A111U C150U C169U U176G belongs 0.00625; to C82U A111U C150G C169A U176C, 0.00895. To C82U A111U C150G C169A U176A belongs 0.00971. To C82U A111U C150G C169A U176G belongs 0.00774; to C82U A111U A145G C169G U176A, 0.0207. On to C82U A111U A145G C169G U176C, for which the reverse-splicing fitness worked out at 0.027. Take C82U A111U A145G C169G U176G: the reverse-splicing fitness stood at 0.00528. To C82U A120C A145C C150U belongs 0.0393; to C82U A120C A145C C150A, 0.0114. To C82U A120C A145C C150G belongs 0.0204. Regarding C82U A120C A145U C150A C169G U176G, the reverse-splicing fitness was determined as 0.00397.

On to C82U A120C A145U C150A C169G U176A, for which the reverse-splicing fitness is 0.00898.

In the case of C82U A120C A145U C150A C169G U176C, the reverse-splicing fitness came to 0.0081. C82U A120C A145U C169A: the reverse-splicing fitness came out at 0.00492. To C82U A120C A145U C169G belongs 0.00567; to C82U A111U A145U C150U C169U U176G, 0.00582; to C82U A111U A145U C150U C169U U176C, 0.0115. To C82U A111U A145U C150U C169U U176A belongs 0.0148. To C82U A120C A145U C150A U176C belongs 0.0137; to C82U A120C A145U C150A U176A, 0.0114; to C82U A120C A145U C150A U176G, 0.00478. Consider C82U A111U A145U C150A C169U U176A, for which the reverse-splicing fitness came out at 0.0133. To C82U A111U A145U C150A C169U U176C belongs 0.0118; to C82U A111U A145U C150A C169U U176G, 0.00593. To C82U A111U C150A C169U belongs 0.0133; to C82U A111U C150A C169G, 0.00941; to C82U A111U C150A C169A, 0.00982.

For C82U A111U C150A C169U U176A, the reverse-splicing fitness amounted to 0.0198. To C82U A111U C150A C169U U176G belongs 0.0075; to C82U A111U C150A C169U U176C, 0.0152; to C82U A120C A145U C150G U176C, 0.0134. To C82U A120C A145U C150G U176G belongs 0.0036; to C82U A120C A145U C150G U176A, 0.00757.

As to C82U A120C A145C C150A C169G U176C, the reverse-splicing fitness came to 0.00772. As for C82U A120C A145C C150A C169G U176G, the reverse-splicing fitness was found to be 0.00448.

Turning to C82U A120C A145C C150A C169G U176A, the reverse-splicing fitness is 0.0162. To C82U A120C A145G C150U belongs 0.139; to C82U A120C A145G C150A, 0.0315. To C82U A120C A145G C150G belongs 0.0255.

As to C82U A111U C150G, the reverse-splicing fitness was 0.0213.

Turning to C82U A111U C150A, the reverse-splicing fitness came to 0.031. To C82U A111U C150U belongs 0.157; to C82U A111U C150A C169G U176A, 0.0193; to C82U A111U C150A C169G U176G, 0.00717. To C82U A111U C150A C169G U176C belongs 0.0217; to C82U A120C A145C U176C, 0.0651.

Take C82U A120C A145C U176G: the reverse-splicing fitness was determined as 0.00964. To C82U A120C A145C U176A belongs 0.0438; to C82U A111U A145G C150U C169U U176A, 0.0149. Take C82U A111U A145G C150U C169U U176G: the reverse-splicing fitness stood at 0.00571. To C82U A111U A145G C150U C169U U176C belongs 0.013; to C82U A111U A145U C150A C169A U176C, 0.00929.

With C82U A111U A145U C150A C169A U176A, the reverse-splicing fitness was found to be 0.0123. To C82U A111U A145U C150A C169A U176G belongs 0.00735; to C82U A120C A145U C150G C169A U176G, 0.00423; to C82U A120C A145U C150G C169A U176C, 0.00716. As for C82U A120C A145U C150G C169A U176A, the reverse-splicing fitness worked out at 0.00958. To C82U A120C A145G C169G U176G belongs 0.00346; to C82U A120C A145G C169G U176C, 0.0181; to C82U A120C A145G C169G U176A, 0.0152. To C82U A111U C150A U176C belongs 0.0289; to C82U A111U C150A U176A, 0.0157; to C82U A111U C150A U176G, 0.00896.
